Values joined by “and” are separate entries in the source; they are usually repeats but may differ in a detail not shown here. Equal entries are not always repeated.
B1: 抗H7N9全人源单克隆抗体7O2 (antibody, V domains shown)
VH: EVQLVESGGGLVQPGGSLRLSCAASGFTFSSYWMHWVRQAPGKGLVWVSRINSDGSSTSYADSVKGRFTISRDNAKNTLYLQMNSLRAEDTAVYYCARRSKTGKFDPWGQGTLVTVSS
VL: SYELTQPPSVSVSPGQTARITCSGDALPKQYAYWYQQKPGQAPVLVIYKDSERPSGIPERFSGSSSGTTVTLTISGVQAEDEADYYCQSADSSGTLEVFGGGTKLTVLV

What was measured:
H7N9病毒的血凝素HA (H7N9病毒) [1] = test: ELISA, positive control well
H7N9病毒的血凝素HA (H7N9病毒) [2] = test: ELISA of 293F supernatant with recombinant 7O2

Row | Molecule | 450 (absorbance at 450 nm) (H7N9病毒的血凝素HA (H7N9病毒) [1]) | 450 (absorbance at 450 nm) (H7N9病毒的血凝素HA (H7N9病毒) [2])
1 | 阳性对照 | 1.15 (2×) and 1.21 | –
2 | B1 | – | 3 and 3.12 and 2.96
